These results are taken from publication PMC9640981, “Plant vernalization proteins contain unusual PHD superdomains without histone H3 binding activity” (The Journal of Biological Chemistry, 2022).

For the assay, the target named is Arabidopsis thaliana (At) OBE1_(193-372), PHD superdomain of OBERON 1 (A. thaliana) (UniProt Q9S736). The experiment in a line: ITC; 25 °C, iTC 200; 25 mM Tris pH 8, 150 mM NaCl, 1 mM DTT; 19 injections of 2 μl of 0.25 to 1 mM peptide into 50 μM protein. A general note: Isothermal titration calorimetry measures the heat released or taken up as one component is titrated into another.

Regarding “H3K4me2 (1–15) histone H3 tail peptide (from UniProt P68431 2-16)”, the Kd (as a rule, the concentration at which binding is half-saturated) was 1.9 µM.
